Test results from patent publication US20220275067A1 (PROTHENA BIOSCIENCES, published 2022).

Target: T1, recombinant human 4R0N tau (human, UniProt P10636 2-758)
T1 construct: also called recombinant 4R0N human tau; P10636-6
Experiment: SPR Biacore T200; antibody captured by anti-human Fc; tau as analyte; global 1:1 fit
Protocol: Target binding analysis was performed using a Biacore T200 to compare the binding affinity of humanized 9F5 variants to recombinant human 4R0N tau. Anti-Human Fc antibody was immobilized on sensor chip CM3 via amine coupling, and humanized 9F5 variants were captured to equivalent levels. Various concentrations of recombinant 4R0N human tau (ranging from 0.02 nM to 12.5 nM) were passed over the captured ligand at 50 μL/min in running buffer (HBS+0.05% P-20, 1 mg/mL BSA) for 180 seconds association/420 seconds dissociation as a single cycle. Data was blank subtracted to both an irrelevant sensor not containing antibody and 0 nM analyte concentration. Analysis was performed using a global 1:1 fit with Biacore Evaluation software.

T1 sequence (P10636 other isoform, or with tags, fused parts or gaps limits assumed): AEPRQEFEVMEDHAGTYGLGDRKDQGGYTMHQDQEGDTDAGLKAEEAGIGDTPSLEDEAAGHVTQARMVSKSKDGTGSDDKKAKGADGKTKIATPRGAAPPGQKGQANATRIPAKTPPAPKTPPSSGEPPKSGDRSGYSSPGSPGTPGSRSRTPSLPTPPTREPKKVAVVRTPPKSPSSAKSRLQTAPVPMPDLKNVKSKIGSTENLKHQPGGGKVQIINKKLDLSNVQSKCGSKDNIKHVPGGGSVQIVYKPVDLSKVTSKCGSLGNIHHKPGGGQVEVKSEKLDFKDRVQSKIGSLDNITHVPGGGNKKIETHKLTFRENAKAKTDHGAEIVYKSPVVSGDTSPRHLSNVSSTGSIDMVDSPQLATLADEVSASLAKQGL

Binder | Kd [nM] | koff [s⁻¹] | kon [M⁻¹ s⁻¹]
hu9F5VHv9/hu9F5VLv8 (antibody, V domains shown) VH: EVQLVQSGAEVKKPGATVKISCKASGFNIKDDYMNWVQQRPGKGLEWIGWIDPENGDTEYASKFQGRATMTADTSTNTAYMELSSLRSEDTAVYYCTTSNGWGQGTLVTVSS VL: DIVMTQSPFSLPVTPGESASISCRSSKSLLHSNGITYLYWYLQKPGQSPQLLIYQMSNLASGVPNRFSSSGSGTDFTLKISRVEAEDVGVYYCAQNLELPLTFGQGTKLEIK | 0.269 | 0.000429 | 1.72e+06
hu9F5VHv9/hu9F5VLv8_DIM1 (antibody, V domains shown) VH: EVQLVQSGAEVKKPGATVKISCKASGFNIKDDYMNWVQQRPGKGLEWIGWIDPENGDTEYASKFQGRATMTADTSTNTAYMELSSLRSEDTAVYYCTTSNGWGQGTLVTVSS VL: DIQMTQSPFSLPVTPGESASISCRSSKSLSHSNGITYLYWYQQKPGQSPQLLIYQGSNGASGVPNRFSSSGSGTDFTLKISRVEAEDVGVYYCAQNIELPLTFGQGTKLEIK | 0.844 | 0.00559 | 6.62e+06
hu9F5VHv9/hu9F5VLv8_DIM8 (antibody, V domains shown) VH: EVQLVQSGAEVKKPGATVKISCKASGFNIKDDYMNWVQQRPGKGLEWIGWIDPENGDTEYASKFQGRATMTADTSTNTAYMELSSLRSEDTAVYYCTTSNGWGQGTLVTVSS VL: DIQMTQSPFSLPVTPGESASISCRSSKSLGHSNGITYLYWYQQKPGQSPQLLIYQKSNRASGVPNRFSSSGSGTDFTLKISRVEAEDVGVYYCAQNIELPLTFGQGTKLEIK | 0.435 | 0.000576 | 1.32e+06
hu9F5VHv9/hu9F5VLv8_DIM12 (antibody, V domains shown) VH: EVQLVQSGAEVKKPGATVKISCKASGFNIKDDYMNWVQQRPGKGLEWIGWIDPENGDTEYASKFQGRATMTADTSTNTAYMELSSLRSEDTAVYYCTTSNGWGQGTLVTVSS VL: DIQMTQSPFSLPVTPGESASISCRSSKSLGHSNGITYLYWYGQKPGQSPQLLIYQGSNRASGVPNRFSSSGSGTDFTLKISRVEAEDVGVYYCAQNGELPLTFGQGTKLEIK | 0.221 | 0.000429 | 1.94e+06
hu9F5VHv9/hu9F5VLv8_DIM9 (antibody, V domains shown) VH: EVQLVQSGAEVKKPGATVKISCKASGFNIKDDYMNWVQQRPGKGLEWIGWIDPENGDTEYASKFQGRATMTADTSTNTAYMELSSLRSEDTAVYYCTTSNGWGQGTLVTVSS VL: DIQMTQSPFSLPVTPGESASISCRSSKSLGHSNGITYLYWYQQKPGQSPQLLIYQKSNGASGVPNRFSSSGSGTDFTLKISRVEAEDVGVYYCAQNIELPLTFGQGTKLEIK | 5.07 | 0.0116 | 2.29e+06
hu9F5VHv9/hu9F5VLv8_DIM13 (antibody, V domains shown) VH: EVQLVQSGAEVKKPGATVKISCKASGFNIKDDYMNWVQQRPGKGLEWIGWIDPENGDTEYASKFQGRATMTADTSTNTAYMELSSLRSEDTAVYYCTTSNGWGQGTLVTVSS VL: DIQMTQSPFSLPVTPGESASISCRSSKSLGHSNGITYLYWYGQKPGQSPQLLIYQGSNRASGVPNRFSSSGSGTDFTLKISRVEAEDVGVYYCAQNLELPLTFGQGTKLEIK | 0.266 | 0.000439 | 1.65e+06
hu9F5VHv9/hu9F5VLv8_DIM3 (antibody, V domains shown) VH: EVQLVQSGAEVKKPGATVKISCKASGFNIKDDYMNWVQQRPGKGLEWIGWIDPENGDTEYASKFQGRATMTADTSTNTAYMELSSLRSEDTAVYYCTTSNGWGQGTLVTVSS VL: DIQMTQSPFSLPVTPGESASISCRSSKSLSHSNGITYLYWYQQKPGQSPQLLIYQGSNTASGVPNRFSSSGSGTDFTLKISRVEAEDVGVYYCAQNIELPLTFGQGTKLEIK | 0.6 | 0.00068 | 1.13e+06
hu9F5VHv9/hu9F5VLv8_DIM7 (antibody, V domains shown) VH: EVQLVQSGAEVKKPGATVKISCKASGFNIKDDYMNWVQQRPGKGLEWIGWIDPENGDTEYASKFQGRATMTADTSTNTAYMELSSLRSEDTAVYYCTTSNGWGQGTLVTVSS VL: DIQMTQSPFSLPVTPGESASISCRSSKSLDHSNGITYLYWYQQKPGQSPQLLIYQKSNRASGVPNRFSSSGSGTDFTLKISRVEAEDVGVYYCAQNIELPLTFGQGTKLEIK | 0.18 | 0.000424 | 2.36e+06
hu9F5VHv9/hu9F5VLv8_DIM4 (antibody, V domains shown) VH: EVQLVQSGAEVKKPGATVKISCKASGFNIKDDYMNWVQQRPGKGLEWIGWIDPENGDTEYASKFQGRATMTADTSTNTAYMELSSLRSEDTAVYYCTTSNGWGQGTLVTVSS VL: DIQMTQSPFSLPVTPGESASISCRSSKSLSHSNGITYLYWYQQKPGQSPQLLIYQGSNRASGVPNRFSSSGSGTDFTLKISRVEAEDVGVYYCAQNGELPLTFGQGTKLEIK | 2.63 | 0.00143 | 542000
hu9F5VHv9/hu9F5VLv8_DIM2 (antibody, V domains shown) VH: EVQLVQSGAEVKKPGATVKISCKASGFNIKDDYMNWVQQRPGKGLEWIGWIDPENGDTEYASKFQGRATMTADTSTNTAYMELSSLRSEDTAVYYCTTSNGWGQGTLVTVSS VL: DIQMTQSPFSLPVTPGESASISCRSSKSLSHSNGITYLYWYQQKPGQSPQLLIYQGSNRASGVPNRFSSSGSGTDFTLKISRVEAEDVGVYYCAQNIELPLTFGQGTKLEIK | 0.299 | 0.000586 | 1.96e+06
hu9F5VHv9/hu9F5VLv8_DIM10 (antibody, V domains shown) VH: EVQLVQSGAEVKKPGATVKISCKASGFNIKDDYMNWVQQRPGKGLEWIGWIDPENGDTEYASKFQGRATMTADTSTNTAYMELSSLRSEDTAVYYCTTSNGWGQGTLVTVSS VL: DIQMTQSPFSLPVTPGESASISCRSSKSLSHSNGITYLYWYQQKPGQSPQLLIYQKSNGASGVPNRFSSSGSGTDFTLKISRVEAEDVGVYYCAQNIELPLTFGQGTKLEIK | 3.92 | 0.0741 | 1.89e+07

Continued by falling Kd, values first:

Kd [nM] | koff [s⁻¹] | kon [M⁻¹ s⁻¹] | Binder
0.873 | 0.000732 | 839000 | hu9F5VHv9/hu9F5VLv8_DIM15 (antibody, V domains shown) VH: EVQLVQSGAEVKKPGATVKISCKASGFNIKDDYMNWVQQRPGKGLEWIGWIDPENGDTEYASKFQGRATMTADTSTNTAYMELSSLRSEDTAVYYCTTSNGWGQGTLVTVSS VL: DIQMTQSPFSLPVTPGESASISCRSSKSLGHSNGITYLYWYGQKPGQSPQLLIYQGSNTASGVPNRFSSSGSGTDFTLKISRVEAEDVGVYYCAQNGELPLTFGQGTKLEIK
0.355 | 0.000808 | 2.27e+06 | hu9F5VHv9/hu9F5VLv8_DIM16 (antibody, V domains shown) VH: EVQLVQSGAEVKKPGATVKISCKASGFNIKDDYMNWVQQRPGKGLEWIGWIDPENGDTEYASKFQGRATMTADTSTNTAYMELSSLRSEDTAVYYCTTSNGWGQGTLVTVSS VL: DIQMTQSPFSLPVTPGESASISCRSSKSLGHSNGITYLYWYGQKPGQSPQLLIYQGSNTASGVPNRFSSSGSGTDFTLKISRVEAEDVGVYYCAQNLELPLTFGQGTKLEIK
0.178 | 0.000272 | 1.53e+06 | hu9F5VHv9/hu9F5VLv8_DIM6 (antibody, V domains shown) VH: EVQLVQSGAEVKKPGATVKISCKASGFNIKDDYMNWVQQRPGKGLEWIGWIDPENGDTEYASKFQGRATMTADTSTNTAYMELSSLRSEDTAVYYCTTSNGWGQGTLVTVSS VL: DIQMTQSPFSLPVTPGESASISCRSSKSLDHSNGITYLYWYQQKPGQSPQLLIYQGSNRASGVPNRFSSSGSGTDFTLKISRVEAEDVGVYYCAQNIELPLTFGQGTKLEIK
0.169 | 0.000295 | 1.75e+06 | hu9F5VHv9/hu9F5VLv8_DIM5 (antibody, V domains shown) VH: EVQLVQSGAEVKKPGATVKISCKASGFNIKDDYMNWVQQRPGKGLEWIGWIDPENGDTEYASKFQGRATMTADTSTNTAYMELSSLRSEDTAVYYCTTSNGWGQGTLVTVSS VL: DIQMTQSPFSLPVTPGESASISCRSSKSLGHSNGITYLYWYQQKPGQSPQLLIYQGSNRASGVPNRFSSSGSGTDFTLKISRVEAEDVGVYYCAQNIELPLTFGQGTKLEIK
0.142 | 0.000188 | 1.33e+06 | hu9F5VHv9/hu9F5VLv8_DIM14 (antibody, V domains shown) VH: EVQLVQSGAEVKKPGATVKISCKASGFNIKDDYMNWVQQRPGKGLEWIGWIDPENGDTEYASKFQGRATMTADTSTNTAYMELSSLRSEDTAVYYCTTSNGWGQGTLVTVSS VL: DIQMTQSPFSLPVTPGESASISCRSSKSLGHSNGITYLYWYGQKPGQSPQLLIYQGSNTASGVPNRFSSSGSGTDFTLKISRVEAEDVGVYYCAQNIELPLTFGQGTKLEIK
0.128 | 0.000326 | 2.54e+06 | hu9F5VHv9/hu9F5VLv8_DIM17 (antibody, V domains shown) VH: EVQLVQSGAEVKKPGATVKISCKASGFNIKDDYMNWVQQRPGKGLEWIGWIDPENGDTEYASKFQGRATMTADTSTNTAYMELSSLRSEDTAVYYCTTSNGWGQGTLVTVSS VL: DIQMTQSPFSLPVTPGESASISCRSSKSLSHSNGITYLYWYGQKPGQSPQLLIYQGSNTASGVPNRFSSSGSGTDFTLKISRVEAEDVGVYYCAQNIELPLTFGQGTKLEIK
0.0772 | 0.00011 | 1.42e+06 | hu9F5VHv9/hu9F5VLv8_DIM11 (antibody, V domains shown) VH: EVQLVQSGAEVKKPGATVKISCKASGFNIKDDYMNWVQQRPGKGLEWIGWIDPENGDTEYASKFQGRATMTADTSTNTAYMELSSLRSEDTAVYYCTTSNGWGQGTLVTVSS VL: DIQMTQSPFSLPVTPGESASISCRSSKSLGHSNGITYLYWYGQKPGQSPQLLIYQGSNRASGVPNRFSSSGSGTDFTLKISRVEAEDVGVYYCAQNIELPLTFGQGTKLEIK
0.0447 | 9.39e-05 | 2.1e+06 | hu9F5VHv9/hu9F5VLv8_DIM18 (antibody, V domains shown) VH: EVQLVQSGAEVKKPGATVKISCKASGFNIKDDYMNWVQQRPGKGLEWIGWIDPENGDTEYASKFQGRATMTADTSTNTAYMELSSLRSEDTAVYYCTTSNGWGQGTLVTVSS VL: DIQMTQSPFSLPVTPGESASISCRSSKSLDHSNGITYLYWYGQKPGQSPQLLIYQGSNRASGVPNRFSSSGSGTDFTLKISRVEAEDVGVYYCAQNIELPLTFGQGTKLEIK
